Test results reported in US20230135471A1, “UBIQUITIN VARIANTS WITH IMPROVED AFFINITY FOR 53BP1” (Integrated DNA Technologies, Inc., priority 2021, published 2023).

Target: 53BP1 fragment (a.a. 1221-1718) fused to an adenylate cyclase fragment (two-hybrid) (UniProt Q12888)
Test: cell-based or functional assay

Substance	Experiment 1 Average Enrichment [log2]	Experiment 1 Rep 1 Enrichment [log2]	Experiment 1 Rep 2 Enrichment [log2]	Experiment 2 Average Enrichment [log2]	Experiment 2 Rep 1 Enrichment [log2]	Experiment 2 Rep 2 Enrichment [log2]	Percent GFP Positive Rep 1 [%]	Percent GFP Positive Rep 2 [%]	Percent GFP Positive Rep 3 [%]
i53 + E18F two-hybrid fusion (designed binder)	0.51	0.09	0.93	0.54	0.22	0.87	–	–	–
i53 + E18H two-hybrid fusion (designed binder)	1.17	0.39	1.96	0.07	0.24	-0.11	–	–	–
i53 + E18L two-hybrid fusion (designed binder)	0.75	0.75	0.76	0.66	0.62	0.71	–	–	–
i53 + E18N two-hybrid fusion (designed binder)	-0.45	0.34	-1.23	0.1	-0.64	0.85	–	–	–
i53 + E18Q two-hybrid fusion (designed binder)	0.72	0.61	0.83	0.03	0.02	0.05	–	–	–
i53 + E18R two-hybrid fusion (designed binder)	-0.75	-1.22	-0.28	0.06	-0.24	0.36	–	–	–
i53 + E18S two-hybrid fusion (designed binder)	0.48	0.47	0.49	0.33	-0.01	0.67	–	–	–
i53 + E18T two-hybrid fusion (designed binder)	-0.27	-0.33	-0.21	0.28	0.23	0.34	–	–	–
i53 + E18W two-hybrid fusion (designed binder)	0.18	0.06	0.31	0.75	0.8	0.69	–	–	–
i53 + E18Y two-hybrid fusion (designed binder)	0.72	1.28	0.17	0.82	1.2	0.44	–	–	–
i53 + E34T two-hybrid fusion (designed binder)	0.12	2.15	-1.91	-3.54	-3.26	-3.83	–	–	–
i53 + E51D two-hybrid fusion (designed binder)	0.52	0.31	0.72	0.61	0.29	0.92	–	–	–
i53 + H68E two-hybrid fusion (designed binder)	-1.08	-0.69	-1.48	0.1	0.33	-0.13	–	–	–
i53 + H68M two-hybrid fusion (designed binder)	2.28	2.53	2.04	1.28	0.99	1.58	28.6	23.5	28.3
i53 + H68Q two-hybrid fusion (designed binder)	0.07	0.44	-0.3	-0.5	-0.62	-0.38	–	–	–
i53 + I13F two-hybrid fusion (designed binder)	0.53	1.04	0.03	-0.09	-0.26	0.07	–	–	–
i53 + I13H two-hybrid fusion (designed binder)	0.5	-0.27	1.28	-1.6	-2.48	-0.71	–	–	–
i53 + I13P two-hybrid fusion (designed binder)	0.58	2.15	-0.99	-4.23	-3.84	-4.62	–	–	–

Substance	Experiment 1 Average Enrichment [log2]	Experiment 1 Rep 1 Enrichment [log2]	Experiment 1 Rep 2 Enrichment [log2]	Experiment 2 Average Enrichment [log2]	Experiment 2 Rep 1 Enrichment [log2]	Experiment 2 Rep 2 Enrichment [log2]	Percent GFP Positive Rep 1 [%]	Percent GFP Positive Rep 2 [%]	Percent GFP Positive Rep 3 [%]
i53 + I61L two-hybrid fusion (designed binder)	1.06	1.1	1.02	0.67	0.75	0.59	15.9	17.6	17.2
i53 + K29H two-hybrid fusion (designed binder)	0.17	0.02	0.32	-2.73	-3.26	-2.2	–	–	–
i53 + K29L two-hybrid fusion (designed binder)	0.11	0.15	0.07	0.26	0.21	0.3	–	–	–
i53 + K29M two-hybrid fusion (designed binder)	1.6	1.72	1.48	0.9	1.23	0.57	23.9	16.5	17.8
i53 + K29Q two-hybrid fusion (designed binder)	0.05	-0.21	0.31	-0.04	-0.26	0.17	–	–	–
i53 + K29R two-hybrid fusion (designed binder)	-0.01	-0.07	0.05	0.28	0.45	0.1	–	–	–
i53 + K33C two-hybrid fusion (designed binder)	1.96	2.85	1.07	0.77	0.55	0.99	–	–	–
i53 + K33E two-hybrid fusion (designed binder)	2.71	2.38	3.03	1.27	1.48	1.05	–	–	–
i53 + K33F two-hybrid fusion (designed binder)	1.77	1.91	1.62	1.02	1.16	0.87	–	–	–
i53 + K33I two-hybrid fusion (designed binder)	2.03	1.91	2.14	0.91	1.32	0.5	–	–	–
i53 + K33L two-hybrid fusion (designed binder)	2.53	2.4	2.65	1.6	1.67	1.53	–	–	–
i53 + K33M two-hybrid fusion (designed binder)	2.34	2.3	2.37	1.06	1.51	0.61	–	–	–
i53 + K33N two-hybrid fusion (designed binder)	0.29	0.48	0.1	0.24	0.06	0.41	–	–	–
i53 + K33Q two-hybrid fusion (designed binder)	2.9	3.03	2.77	1.48	1.96	0.99	–	–	–
i53 + K33R two-hybrid fusion (designed binder)	0.42	0.73	0.1	0.37	0.64	0.1	–	–	–
i53 + K33T two-hybrid fusion (designed binder)	1.77	1.9	1.63	1.41	1.48	1.34	–	–	–
i53 + K33V two-hybrid fusion (designed binder)	2.45	2.71	2.19	1.75	2.03	1.46	–	–	–
